Results reported in patent publication US20260242492A1 (JOINT STOCK COMPANY BIOCAD, published 2026).

T1: biotinylated peptide [NH2]CEPANPSEKNSPSTQYCYSIQS[CH2CH2]biotin comprising a fragment of the human CD20 … (human, [NH2] at the N-terminus; [CH2CH2]biotin at the C-terminus (so in the source))
T1 construct: Immobilized on streptavidin (SAX) sensors; also called CD20 peptide
T1 peptide: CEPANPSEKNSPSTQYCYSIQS

B1: antibody-like molecule 08-003 (binds PD1 and CSF1R) (bispecific antibody, human IgG1, kappa, L234A L235A)
heavy 1: QVQLVQSGGGLVQPGGSLRLSCAASGFTFSSYWMYWVRQVPGKGLEWVSAIDTGGGRTYYADSVKGRFAISRVNAKNTMYLQMNSLRAEDTAVYYCARDEGGGTGWGVLKDWPYGLDAWGQGTLVTVSSASTKGPSVFPLAPSSKSTSGGTAALGCLVKDYFPEPVTVSWNSGALTSGVHTFPAVLQSSGLYSLSSVVTVPSSSLGTQTYICNVNHKPSNTKVDKRVEPKSCDKTHTCPPCPAPEAAGGPSVFLFPPKPKDTLYITREPEVTCVVVDVSHEDPEVKFNWYVDGVEVHNAKTKPREEQYNSTYRVVSVLTVLHQDWLNGKEYKCKVSNKALPAPIEKTISKAKGQPREPQVCTLPPSRDELTKNQVSLSCAVKGFYPSDIAVEWESNGQPENNYKTTPPVLDSDGSFFLVSKLTVDKSRWQQGNVFSCSVMHEALHNHYTQKSLSLSPGK
light 1: QPVLTQPLSVSVALGQTARITCGGNNIGSKNVHWYQQKPGQAPVLVIYRDSNRPSGIPERFSGSNSGNTATLTISRAQAGDEADYYCQVWDSSTAVFGTGTKLTVLQRTVAAPSVFIFPPSDEQLKSGTASVVCLLNNFYPREAKVQWKVDNALQSGNSQESVTEQDSKDSTYSLSSTLTLSKADYEKHKVYACEVTHQGLSSPVTKSFNRGEC
heavy 2: not shown
light 2: QAGLTQPPSVSVAPGQTARITCGGNNIGSKSVHWYQQKPGQAPVLVVYGDSDRPSGIPERFSGSNSGNTATLTISRVEAGDEADYYCQVWDISSDHVVFGGGTQLTVLQRQVKPEAWLSKGPSPGPGRLQLVCHVSGFYPKPVWVMWMRGEQEQQGTQLGDILPNADWTWYLRATLDVADGEAAGLSCRVKHSSLEGQDIILYWRGSC
notes: Four distinct chains: Prolgolimab Fab arm (hole) and anti-CSF1R Fab-like arm with b2m/CD1b alpha3 dimerization unit (knob)
B2: antibody-like molecule 08-004 (binds CSF1R and PD1) (bispecific antibody, human IgG1, kappa, L234A L235A)
heavy 1: QVQLVESGGGLVRPGGSLRLSCAASEFTFDDYAMSWVRQAPGKGLEWVSAISWNGGSTNYADSVKGRFTISRDNAKNSLYLQMNSLRAEDTALYYCASTVEVAHRRLYKYLEVWGQGTLVTVSSASTKGPSVFPLAPSSKSTSGGTAALGCLVKDYFPEPVTVSWNSGALTSGVHTFPAVLQSSGLYSLSSVVTVPSSSLGTQTYICNVNHKPSNTKVDKRVEPKSCDKTHTCPPCPAPEAAGGPSVFLFPPKPKDTLYITREPEVTCVVVDVSHEDPEVKFNWYVDGVEVHNAKTKPREEQYNSTYRVVSVLTVLHQDWLNGKEYKCKVSNKALPAPIEKTISKAKGQPREPQVCTLPPSRDELTKNQVSLSCAVKGFYPSDIAVEWESNGQPENNYKTTPPVLDSDGSFFLVSKLTVDKSRWQQGNVFSCSVMHEALHNHYTQKSLSLSPGK
light 1: QAGLTQPPSVSVAPGQTARITCGGNNIGSKSVHWYQQKPGQAPVLVVYGDSDRPSGIPERFSGSNSGNTATLTISRVEAGDEADYYCQVWDISSDHVVFGGGTQLTVLRTVAAPSVFIFPPSDEQLKSGTASVVCLLNNFYPREAKVQWKVDNALQSGNSQESVTEQDSKDSTYSLSSTLTLSKADYEKHKVYACEVTHQGLSSPVTKSFNRGEC
heavy 2: not shown
light 2: QPVLTQPLSVSVALGQTARITCGGNNIGSKNVHWYQQKPGQAPVLVIYRDSNRPSGIPERFSGSNSGNTATLTISRAQAGDEADYYCQVWDSSTAVFGTGTKLTVLQQRQVKPEAWLSKGPSPGPGRLQLVCHVSGFYPKPVWVMWMRGEQEQQGTQLGDILPNADWTWYLRATLDVADGEAAGLSCRVKHSSLEGQDIILYWRGSC
notes: Four distinct chains: anti-CSF1R Fab arm (hole) and Prolgolimab Fab-like arm with b2m/CD1b alpha3 dimerization unit (knob)
B3: antibody-like molecule 08-005 (binds CD20 and CSF1R) (bispecific antibody, human IgG1, kappa, L234A L235A)
heavy 1: EVQLVESGGGLVQPGGSLRLSCAASGYTFTSYNMHWVRQAPGKGLEWVGAIYPGNGDTSYNQKFKGRFTISVDKSKNTLYLQMNSLRAEDTAVYYCARVVYYSNSYWYFDVWGQGTLVTVSSASTKGPSVFPLAPSSKSTSGGTAALGCLVKDYFPEPVTVSWNSGALTSGVHTFPAVLQSSGLYSLSSVVTVPSSSLGTQTYICNVNHKPSNTKVDKRVEPKSCDKTHTCPPCPAPEAAGGPSVFLFPPKPKDTLYITREPEVTCVVVDVSHEDPEVKFNWYVDGVEVHNAKTKPREEQYNSTYRVVSVLTVLHQDWLNGKEYKCKVSNKALPAPIEKTISKAKGQPREPQVCTLPPSRDELTKNQVSLSCAVKGFYPSDIAVEWESNGQPENNYKTTPPVLDSDGSFFLVSKLTVDKSRWQQGNVFSCSVMHEALHNHYTQKSLSLSPGK
light 1: DIQMTQSPSSLSASVGDRVTITCRASSSVSYMHWYQQKPGKAPKPLIYAPSNLASGVPSRFSGSGSGTDFTLTISSLQPEDFATYYCQQWSFNPPTFGQGTKVEIKRTVAAPSVFIFPPSDEQLKSGTASVVCLLNNFYPREAKVQWKVDNALQSGNSQESVTEQDSKDSTYSLSSTLTLSKADYEKHKVYACEVTHQGLSSPVTKSFNRGEC
heavy 2: not shown
light 2: B1 light 2
notes: Four distinct chains: Ocrelizumab Fab arm (hole) and anti-CSF1R Fab-like arm with b2m/CD1b alpha3 dimerization unit (knob)
B4: antibody-like molecule 08-001 (binds PD1 and CD20) (bispecific antibody, human IgG1, kappa, L234A L235A)
heavy 1: B1 heavy 1
light 1: B1 light 1
heavy 2: not shown
light 2: DIQMTQSPSSLSASVGDRVTITCRASSSVSYMHWYQQKPGKAPKPLIYAPSNLASGVPSRFSGSGSGTDFTLTISSLQPEDFATYYCQQWSFNPPTFGQGTKVEIKQRQVKPEAWLSKGPSPGPGRLQLVCHVSGFYPKPVWVMWMRGEQEQQGTQLGDILPNADWTWYLRATLDVADGEAAGLSCRVKHSSLEGQDIILYWRGSC
B5: antibody-like molecule 08-002 (binds CD20 and PD1) (bispecific antibody, human IgG1, kappa, L234A L235A)
heavy 1: B3 heavy 1
light 1: B3 light 1
heavy 2: not shown
light 2: B2 light 2
notes: Four distinct chains: Ocrelizumab Fab arm (hole) and Prolgolimab Fab-like arm with b2m/CD1b alpha3 dimerization unit (knob)

The binders below were run against T2, extracellular domain of the human CSF1R protein (hCSF1R_His) (human, UniProt P07333 20-512) (assay: BLI (Octet RED 384), antibody-like molecule on ProA sensors, hCSF1R_His analyte 174.2 nM, 1:1 model).
T2 construct: range 20-512; Made in CHO cells, molecular weight 57.4 kDa as printed; not shown: C-terminal His-tag and FLAG-tag
T2 sequence (P07333 20-512 limits assumed): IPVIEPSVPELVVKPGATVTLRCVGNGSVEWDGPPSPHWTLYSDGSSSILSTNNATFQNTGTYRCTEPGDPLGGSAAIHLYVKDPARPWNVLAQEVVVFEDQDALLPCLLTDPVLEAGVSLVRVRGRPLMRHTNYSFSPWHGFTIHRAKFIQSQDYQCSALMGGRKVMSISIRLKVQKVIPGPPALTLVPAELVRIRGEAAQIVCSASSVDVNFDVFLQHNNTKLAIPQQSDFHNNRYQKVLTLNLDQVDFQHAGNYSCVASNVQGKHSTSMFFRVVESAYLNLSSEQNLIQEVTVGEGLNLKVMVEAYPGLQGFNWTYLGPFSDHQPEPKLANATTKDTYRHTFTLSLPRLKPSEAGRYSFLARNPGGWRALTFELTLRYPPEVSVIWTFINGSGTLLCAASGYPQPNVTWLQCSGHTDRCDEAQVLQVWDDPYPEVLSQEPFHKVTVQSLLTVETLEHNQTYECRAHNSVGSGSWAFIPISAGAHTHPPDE
Procedure: (§1) Experiments were carried out using a kinetic buffer solution (hereinafter referred to as 1×KB); volume fraction of added Tween 20 was 0.1%; mass fraction of added BSA (bovine serum albumin) was 0.1%; pH 7.4. Before the measurement, the ProA sensors were regenerated with a solution of 50 mM glycine and hydrochloric acid, pH 1.8 (5 seconds in the regenerating solution, 5 seconds in 1×KB, three repetitions).
(§2) In the case of the hPDlex-H6F and hCSF1R_His antigens, the Protein A (ProA) biosensors (ForteBio) were immersed in a solution with antibody-like molecules at a concentration of 10 µg/ml for 300 seconds to immobilize same. The baseline was recorded in 1×KB for 120 seconds. Sensors loaded with the antibody-like molecule were then immersed into wells containing a solution of the target antigen (analyte) in a kinetic buffer for 300 seconds. Measurements were performed for solutions with hPDlex-H6F analyte at concentrations of 10 µg/ml (485.4 nM), for solutions with hCSF1R_His analyte at concentrations of 10 µg/ml (174.2 nM). Complex dissociation in 1×KB was then detected for 600 seconds.
(§3) To obtain numerical values of kinetic constants (kon is the on/association rate constant, kdis is the dissociation rate constant, KD is the equilibrium dissociation constant or affinity constant), the resulting sensograms were processed according to the 1:1 interaction model using Global Fit (selection of one set of kon, kdis, KD constants to analyze several sensograms of different concentrations) of the ForteBio Octet Data Analysis 9.0 software.

| Kd [nM] | koff [s⁻¹] | kon [M⁻¹ s⁻¹] | Binder |
| --- | --- | --- | --- |
| 1.44 | 0.000238 | 165000 | B1 |
| 2.23 | 0.000443 | 199000 | B2 |
| 1.4 | 0.000253 | 181000 | B3 |

Target: T1, biotinylated peptide …
Assay: BLI (Octet RED 384), biotinylated CD20 peptide on SAX sensors, antibody-like molecule as analyte, 1:1 model, global fit
Procedure: as §1
In the case of biotinylated […], the peptide at a concentration of 2.5 μg/ml was immobilized on the surface of SAX sensors (High Precision Streptavidin (SAX) biosensors, ForteBio) for 300 seconds. The baseline was recorded in a 1×KB solution for 120 seconds. Sensors loaded with peptide were then immersed into wells containing the solution of antibody-like molecule (analyte) in 1×KB for 300 seconds. Measurements were performed for solutions with analyte (antibody-like molecule in case of CD20 peptide) at concentrations […] and 75 µg/ml. Complex dissociation was recorded in 1×KB for 60 seconds.
as §3

| Kd [nM] | koff [s⁻¹] | kon [M⁻¹ s⁻¹] | Binder |
| --- | --- | --- | --- |
| 848 | 0.139 | 164000 | B4 |
| 845 | 0.0986 | 117000 | B5 |
| 483 | 0.0581 | 120000 | B3 |

These binders were tested against T3, extracellular domain of the human PD-1 protein (hPD1ex-H6F) (human, UniProt Q15116 21-170) (assay: BLI (Octet RED 384), antibody-like molecule on ProA sensors, hPD1ex-H6F analyte 485.4 nM, 1:1 model).
T3 construct: Made in CHO cells, molecular weight 20.6 kDa as printed; also called hPDlex-H6F
T3 sequence (Q15116 21-170 limits assumed, form in doubt): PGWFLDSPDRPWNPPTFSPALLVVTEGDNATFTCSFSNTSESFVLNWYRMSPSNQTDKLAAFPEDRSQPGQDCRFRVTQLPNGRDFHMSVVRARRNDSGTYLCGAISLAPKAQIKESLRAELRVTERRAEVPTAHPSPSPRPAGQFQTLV
Procedure: as §1, §2, §3

| Kd [nM] | koff [s⁻¹] | kon [M⁻¹ s⁻¹] | Binder |
| --- | --- | --- | --- |
| 15.9 | 0.000601 | 37800 | B4 |
| 12.4 | 0.000487 | 39200 | B1 |
| 16.9 | 0.000658 | 39000 | B5 |
| 13.7 | 0.000568 | 41400 | B2 |
